Experimental data taken from article PMC3115060, “Structural Analysis of a Novel Class of R–M Controller Proteins: C.Csp231I from Citrobacter sp. RFL231” (Journal of Molecular Biology, 2011).

Target: the molecule itself
Assay: AUC; sedimentation velocity, 10-80 uM protein, 50 mM Tris-HCl pH 8.0, 100 mM NaCl, 1 mM Na2-EDTA, 20 C, 40,000 rpm, 280 nm; self-association (dimer)

B1: C.Csp231I controller protein (natural protein, Citrobacter sp. RFL231, UniProt Q32WH4 1-98, looked up)
chain: MLIRRLKDARLRAGISQEKLGVLAGIDEASASARMNQYEKGKHAPDFEMANRLAKVLKIPVSYLYTPEDDLAQIILTWNELNEQERKRINFYIRKKAK
notes: C.Csp231I controller protein of the Csp231I restriction-modification system, Citrobacter sp; RFL231; native untagged protein, 98 amino acids (Mr 11,360), expressed from the csp231IC gene; Homodimer in solution and in both crystal forms; also called C-protein; source: E. coli BL21(DE3) Gold, pET-11a, purified (HiTrap heparin, HiTrap SP, Sephacryl S-100 HR)
In the case of B1, the “stoichiometry N” value is reported as 2.
